Columns and labels:
[1] = target: RAD52 (untagged, pET11a);DSS1 (Homo sapiens;Homo sapiens, UniProt P43351;P60896 1-418;1-70, |); experiment: stopped-flow fluorescence; 1:1 complex; sign change at 0.1-0.25 uM; ssDNA EMSA: 30 mM Tris-acetate pH 7.5, 1 mM DTT, RT, 0.1% glutaraldehyde; FRET: same buffer + 0.1 mg/ml BSA, 25 C; dsDNA EMSA: 30 mM KPi pH 7.4, 1 mM DTT, 0.01; settings: protein: recombinant;recombinant; tags: none;GST removed by thrombin; label: Cy3; single strand
RAD52 (untagged, pET11a) = target: T1, RAD52 (untagged, pET11a) (Homo sapiens, UniProt P43351 1-418); experiment: stopped-flow fluorescence; 0.05-2.0 uM RAD52; smaller amplitude, lower affinity than with DSS1; sign change at ~0.5 uM; ssDNA EMSA: 30 mM Tris-acetate pH 7.5, 1 mM DTT, RT, 0.1% glutaraldehyde; FRET: same buffer + 0.1 mg/ml BSA, 25 C; dsDNA EMSA: 30 mM KPi pH 7.4, 1 mM DTT, 0.01; settings: protein: recombinant; tags: none; label: Cy3; single strand
T1 sequence: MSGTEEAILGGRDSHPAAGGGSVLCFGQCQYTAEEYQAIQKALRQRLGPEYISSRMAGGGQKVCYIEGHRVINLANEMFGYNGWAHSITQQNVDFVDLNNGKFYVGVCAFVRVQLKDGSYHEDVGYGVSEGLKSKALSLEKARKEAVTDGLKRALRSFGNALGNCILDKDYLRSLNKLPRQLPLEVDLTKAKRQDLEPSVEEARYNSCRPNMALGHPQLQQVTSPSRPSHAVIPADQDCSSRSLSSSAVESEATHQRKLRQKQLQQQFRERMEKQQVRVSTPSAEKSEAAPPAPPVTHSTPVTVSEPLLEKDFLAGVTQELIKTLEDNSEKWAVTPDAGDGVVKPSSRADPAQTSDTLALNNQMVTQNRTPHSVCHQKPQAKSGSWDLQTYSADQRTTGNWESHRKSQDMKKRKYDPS

Sequence of RAD52 (untagged, pET11a);DSS1 (P60896 whole entry, one chain of several): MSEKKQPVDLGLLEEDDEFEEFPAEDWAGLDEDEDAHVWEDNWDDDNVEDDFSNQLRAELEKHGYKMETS

Which results are given for TTTTTTTTTTTTTTTTTTTTTTTTTTTTTTTTT (ssDNA) [Cy3-dT33 (pR1255)]?
binding result [1]: binds; binding result (RAD52 (untagged, pET11a)): binds

Reference: article PMC6954417, “DSS1 interacts with and stimulates RAD52 to promote the repair of DSBs”
